We go through one substance from patent publication US12492236B2, “Fusion proteins for the treatment of cardiometabolic diseases” (Shattuck Labs, Inc., priority 2022, dated 2025).

Test [1] addresses T1, recombinant human Activin A (Homo sapiens, UniProt P08476).
T1 sequence (P08476 311-426): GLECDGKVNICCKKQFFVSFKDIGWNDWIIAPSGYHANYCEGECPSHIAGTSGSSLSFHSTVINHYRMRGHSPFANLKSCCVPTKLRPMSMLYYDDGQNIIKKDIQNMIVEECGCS
The experiment in a line: MSD platform-based binding assay on plate-bound Activin A. Conditions: MSD signal, serial dilutions. The procedure:
The binding by a recombinant human ACVR2B-Fc fusion protein to activin A (also known as Inhibin beta A) was characterized using a Meso Scale Discovery (MSD) platform-based assay. Briefly, Activin A was coated on a plate and 8× serial dilutions of the purified recombinant human ACVR2B-Fc fusion protein were also added in a series of wells. The protein captured by the plate-bound Activin A was detected using an anti-human Fc antibody and a SULFO-TAG conjugated secondary antibody.
(§1) The binding to Activin A by the GLP-1-Fc-ACVR2B fusion protein produced using the mmRNA constructs was investigated using a Meso Scale Discovery (MSD) platform-based assay. Briefly, HEK293T cells were transfected with each mRNA construct using lipofectamine 2000, and culture supernatants were collected after 48 hours. Activin A was coated on a plate, and 3× serial dilutions of the culture supernatants were added to the plate for capture by the plate-bound Activin A. The protein captured by the plate-bound Activin A was detected using an anti-human Fc antibody and a SULFO-TAG conjugated secondary antibody. The MSD signals generated by the culture supernatants of HEK293T cells transfected with different mmRNA constructs were plotted as a line graph.

For another test, the target named is T2, recombinant human GDF-8 (Homo sapiens, UniProt O14793).
T2 sequence (O14793 267-375): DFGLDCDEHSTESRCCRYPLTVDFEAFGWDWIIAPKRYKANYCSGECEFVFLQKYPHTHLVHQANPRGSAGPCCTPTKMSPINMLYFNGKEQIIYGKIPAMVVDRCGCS
The experiment in a line: MSD platform-based binding assay on plate-bound GDF-8. Conditions: MSD signal, serial dilutions. As for the experimental part:
The binding by a recombinant human ACVR2B-Fc fusion protein to GDF-8 (also known as myostatin) was characterized using a Meso Scale Discovery (MSD) platform-based assay. Briefly, GDF-8 was coated on a plate and 8× serial dilutions of the purified recombinant human ACVR2B-Fc fusion protein were also added in a series of wells. The protein captured by the plate-bound GDF-8 was detected using an anti-human Fc antibody and a SULFO-TAG conjugated secondary antibody.
as §1, with “GDF-8” for “Activin A”, “GDF-8.” for “Activin A.”

“GLP-1-Fc-ACVR2B: GLP-1 fused to ACVR2B extracellular domain via IgG1 hinge-CH2-CH3 Fc domain; SEQ ID NO: 154”: the “binding to Activin A” value in test [1] is recorded as “binds to the human Activin A”. Besides, the “binding to GDF-8” value in the test with recombinant human GDF-8 is “binds to the human GDF-8”.
